Data from the nanobody polyreactivity screen of Harvey et al. (2022).

Assay: yeast display, Sf9 membrane polyspecificity reagent, FACS + sequencing; frameworks hold sequencing errors
Summary of the method: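 Galactose induction of a Saccharomyces cerevisiae BJ5465 synthetic nanobody display library ran 36–48 hours. The cells were then stained for 1 hour at 4 °C with 10% biotinylated, detergent-solubilized Sf9 membrane reagent, pulled down on streptavidin microbeads and FACS-sorted into low and high (top ~1%) gates on expression and reagent-binding fluorescence. Labels for polyreactivity follow the gate of origin.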

Sequence	polyreactivity (PSR sort gate)
QVQLVESGGGLVQAGGSLRLSCAASGSIVIINTMGWYRQAPGKERELVAAISWGGTDTNYADSVKGRFTISRDNAKNTVYVQMNSLKPEDTAVYYCNTDQDLVRSYDYWGQGTQVTVSS	low polyreactivity
QVQLVESGGGLVQAGGSLRLSCAASGFIFPVYAMGWYRQAPGKERELVAAIRRGGSTNYADSVKGRFTISRDNAKNTVYLQMNSLKPEDTAVYYCAVEYQSPDDYWGQGTQVTVSS	low polyreactivity
QVHLVESGGGLVQAGGSLRLSCAASGRIFRYYAIGWYRQAPGKERELVAAITWRGDSTYYADSVKGRFTISRDNAKNTVYLQMNSLKPEDTAVYYCNKRWTDKYDSWGQGTQVTVSS	high polyreactivity
QVQLVESGGGLVQAGGSLRLSCADSGRIFYYYTMGWYRQAPGKERELVARINSSGSTNLRRLCEGALHNFTRQCEEYRLFTDEQPETGRYRVYYCNADTKRSSREYDYWGQGTQVTVSS	low polyreactivity
QVQLVESGGGLVQAGGSPRLSCAASGIIFQHNAMGWYRQAPGKERELVAAISSNGGRTFYADSVKGRFTISRDNAKNTVYLQMNSLKPEDTAVYYCAADRPAYGVGYWGQGTQVTVSS	high polyreactivity
QVPLVESGGGLVQAGGSLRLSCAASGSICWSYAMGWYRQAPGTERELVASITRSGGSTYYADSVKGRFTISRDYAKNSLYLQLNSLKPEETAVYYCNARRTTRWGSSKYEYDYWGQATQVTVSS	high polyreactivity
QVQLVESGGGLVQAGGSLRISCAASGRIFWANVMGWYRQAPGKERELVAAITGGGRTYYADSVKGRFTISRDNAKNTVYLQMNSLKPEDTAVYYCNAELNWYYYIHLDYWGQGTQVTVSS	low polyreactivity
QVQLLESGGGLVQAGGSLRLSCASSGRTFRQYVMVWYRQAPGKESELVAAITYSGGSTYFADSVKGRFTISRDNAKYSVYLQMNSLTPEDTAVYYCAARNGYCVGYWGQGTQVTVSS	high polyreactivity
QVQLVESGGGLVQAGGSLRLSCAASGRTFGKYAMGWYRQAPGKERELVATISLSGGSTYYADSVKGRFTISRDNAKNTVYLQMNSLKPEDTAVYYCAARRKFDYWGQGTQVTVSS	high polyreactivity
QVQLVESGGGIVQAGGSLRLICAASGLIFTLYAMGWSRQAPGKERQLVAVISSAGSTNYADSVKGRFTISRDTAKNTVYLQMNSLKPEETAVYYCNAEPTTPYWDYWAYEDDYWGQGTQVTVSS	low polyreactivity
QVQLVESGGGLVQAGGSLRLSCAASGFTFYHYAMGWYRPAPGKERELVAAISKSGGRTYYADSVKGRFTISRDNAMYTVYLQMNSLKPEDTAVYYFNAAYRTTSYENDYWGQGTQVTVSS	low polyreactivity
QVQLVESGGGLVQAGGSLRLSCAASGSIFRWYAMGWYRQAPGKERELVAAISYSGGSTYYADSVKGRFTISRDNAKNTVYLQMNSLKPEDTAVYYCARLGWKPITAARDYWGQVTQVTVSS	high polyreactivity
QVQLVESGGGLVQAGGSLRLSCAASGFTFHGNAMGWYRQAPGKERELVAVISSSGASTYYADSVKGRFTISRDNAKNTVYLQMNSLKPEDTAVYYCAKVSSPLLYVSSDYDYWGQGTQVTVSS	high polyreactivity
QVQLVESGGGLVQAGGSLRLSCAASGRISQIYAMGWYRQAPGKERELVARITSTDSTYYADSVKGRFTISRDNAKNTVYLQMNSLKPEDTAVYYCAASWWSPYDYWGQGTQVTVSS	low polyreactivity
QVQLVESGGGLVQAGGSLRLSCAASGSTFNIYVMGWYRQAPGKERELVAAISTSGRTYYADSVKGRFTISRDNAKNTVYLQMNSLKPEDTAVYYCNAGYWVRKYYHGGYWGQGTQVTVSS	high polyreactivity
QVQLVESGGGLVQAGGSLRLSCAASGRTFVHYTMGWYRQAPGKERELVAAISGTGTSTYYADSVKGRFTISRDNAKNTVYLQMNSLKPEDTAVYDCARDPYFGFLIGYPRRDYWGQGTQVTVSS	low polyreactivity
QVQLVESGGGLVQAGGSLRLSCAASGSTFWYYGMGWYRQAPGKEMELVARINWSTGRTYYADSVKGRFTISRDTAKNTVYLQMNSLKPEDTAVYYCNALNPYKGQEAHYDYWGQGTQVTVSS	high polyreactivity
QVQLVESGGGLVQAGGSLRLSCAASGYTFPPNAMGWYSQAPGKERELVAAISWRGDSTYYADSVKGRFTISRDNAKNTVYLQMISLKPEDTAVYYCAAGYRRGPDIYYYWGQVTQVTVSS	low polyreactivity
QVQLVDSGGGLVQAGGSLRLRCAASGSTFGIYAMGWYRQAPGKERELVAAISWRGGRTYYADSVKGRFTITRDNAKNNVYFQMNSLKPEDTAVYYCAADYRYLWEGYDYWGQGTQVTVSS	low polyreactivity
QVQLVESGGGLVQAGGSLRLSCAASGSIFSYNGMGWYRQAPGKEREFVAAITWRGGSTYYADSVKGRFTISRDNAMNTVYLQMNSLKPEDTAVYYCARRPGYALTWRVSGRYDYWGQGTQVTVSS	high polyreactivity
QVQLVESGGGIVQAGGSLRLSCAASGRTLSKNAMGWYRQAPGKERELVATISSVGRTNYADSVKGRFTISRDNAKNTVYLQMNSLKPEDTAVYNCAARRFRGSYYWGQGTQVTVSS	high polyreactivity
QVQLVESGGGLVQAGGSLRLSCAASGSISGYYAMGGYRQAPGKERELVASIRYTGARTYYADSVKGRFTISRDNAKNTVYLQMNSLKPEDTAVYYCAADVKRDRVWGGDYWGQGTQVTVSS	low polyreactivity

Sequence	polyreactivity (PSR sort gate)
QVQLVESGGGLVQAGGSLRLSSASSGRIFPDNTMGWYRQAPGKERELVAVITYSGGSTYYADSVKGRFTISRDNAKNTVYLQMNSLKPDDTAVYYCAARDYYIWFAEVDYWGQGTQVTVSS	low polyreactivity
QVQLVESGGGLVQAGGSLLLSCAASGIIFSEYDMGWYRQAPGKESELVAAISKSGGRTYYADSVKVRFTISRDNAKNTGFLQMNSLKQEDTAVYYCAAGGRFRFTQYYKHYYWGQGTQVNVSS	high polyreactivity
QVQLVESGGGLVQAGASLRLSCAASGFTFGTYVMGWYRQAPGKERELVARITYGGGRTYYADSVKGRFTISRDNAKNTVYLQMNSLNPEDTAVYYSNARVTYSRYFKGYNYWGQGTQVTVSS	high polyreactivity
QVQLVESGGGLVQAGGSLRLSCAASGRISFNAMGWYRQAPGKERELVAAITSSGGRTYYADSVKGRFTISRDNAKNTVYLQMNSLKPEDTAVYYCATGSPGGSPGWGRTTGRLGYWGQGTQVTVSS	high polyreactivity
QVQLVESGGGLVQAGGSLRLSCAASGIIFGFNAMGWYRQAPGKERELVAAINGDDSTYYADSVKGRFTISRDTAKNTVYFQMNSLKPEDTAVYYSAARYYRYLTFTGELLVYYWGQGTQVTVSS	low polyreactivity
QVQLVESGGGLVQAGGSLRLSCAASGSTFKGYAMGWYRQAPGKERELVAAISSRTGSTYYADSVKGRFTISRDNAKNTVYLQMNSLKPEDTAVYYCAAPWFRDTRGYSLYDYWGQGTQVTVSS	high polyreactivity
QVQLVESGGGLVQAGGSLRLSCAASGITIKRYDMGWYRQAPGKEREFVATISQSGTSTYYADSVKGRFTISRDNAKNTVYLQMNSLKPEDTAVYYCAAYYIGYWYGYYSWGQGTQVTVSS	low polyreactivity
QVQLVESGGGLVQAGGSLRLSCAASGFTLLPYAMGWYRQAPGKERELVAAISRRGVSTYYADSVKGRFTISRDNAKNTVYLQMNSLKPEDTAVYYCATRYFTGYGLRPQFYYWGQGSQVTVSS	high polyreactivity
QVQLVESGGGLVQAGGSLRLSCAASGRIFIRAMGWYRQAPGKERELVAGITNGGITYYADSVKGRFTISRDNAKNTVYLQMISLKPEDTAVYFCNDRSSSVDYNYDYWGQGTQVTVSS	low polyreactivity
QVQLQGSGGGLVQAGGSLRLSCAASAYIFQNHPMGCNRQAPGKERELVAGIDNGTSTNYADSVNGRFTISRDNAKNTVYLQMNSLKPEDTAVYYCAAAGQADDTLGYWGQGTQVTVSS	low polyreactivity
QVQLVESGGGLVQAGGSLRLSCAASGFTIDAYAMGWYRQAPGKDRELVAAISGSGGSTYYADSVKGRFTISRDNAKNTVYLQMNSLKPEDTALYYCAKDPGPYDYDYWGQGTQVTVSS	low polyreactivity
QVQLVESGGGLVQAGGSLRLSCAASGITFGGNAMGWYRQAPGKERELVAAISRRGGSTYYADSVKGRFTISRDNAKNTVYLQMNSLKPEDTAVYYCAAYDPVNSPGYDYWGQGTQVTVSS	high polyreactivity
QVQLVESGGGLVQAGGSLRLSCAASGYIFGYNAMGWYRPAPGKERELVAAISRSAGRTYYADSVKGRFTISRDNAKNTVYLQMNSLKPEDSAVYYCAAQSYWLGYEYWGQGTQVTVSS	high polyreactivity
QVQLVDSGGGLVQAVGSLRLSCAASGGIFVPNAMGWYRQAHGKVRELVAAIYYSGGRTYYADSVKGSFTISRDNAKNTVYLQMNRLKPEDTAVYYCAAEYWFVFHHYNYFGQGTQVTVSS	high polyreactivity
QVQLVESGGGLVQAGGSLRLSCAASGSTFGWYAMGWYRQAPGKERELVAAISNSGGSTYYADSVKGRFTISRDNAKNTVYLQMNSLKPEDTAVYYCATYHTTSYYQLVFDYWGQGTQVTVSS	low polyreactivity
QVQLVESGGGLVQAGGSLRLSCAASGFTFTGYAMGWYRQAPGKERELVAAISQSGGSTYADSVKGRFTISRDNAKNTVYLQMNSLKPEDTAVYYCNAATHGPFDYWGQGTQVTVSS	low polyreactivity
EVQLVESGGGLVQAGGSLRISCAASGRIFNFYAMGWYRQAPGKEREFVASIRSNVGSTYYADSVKGRFTISRDNAKNTVYLQMNSLKPEDTAVYYCNARYYWYRGYDYWGQGTQVTVSS	high polyreactivity
QVQLEESGGGLVQAGGSLRLSCAASGLIFIVYAMGWYRQAPGKERELVAAISFSGGSTYYADSVKGRFTISRDNAKNTVYLQMNSLKPEDTAVYYCAARARYTRRGRNYDYWGQGTQVTVSS	high polyreactivity
QVQLVESGGGLVQAGGSLRLSCAASGSIFSWYAMGWYRQAPGKERELVAAITWTGGSTYYADSVKGRFTISRDNAKNTVYLQMNSLKPEDTAVYYCAARRVVYRYYWYSAYDYWGQGTQVTVSS	high polyreactivity
QVQLVESGGGLVQAGGSLRLSCAASGNIFTKYAMGWYRPAPGKERELVAAITWSGGSTYYADSVKGRFTISRDNAKNTVYLRMNSLKPEDTAVYYCATAHGFRRDKPYDYWGQGTQVTVSS	high polyreactivity
QVQLVESGGGLVQAGGSLRLSCAASGHIYFYYTMGWYRQAPGKERDLVAGITIGGSTNYADSVKGRFTISRDNAKNTVYLQMNSLKPEDTAVYYCNVVKYVYIYSYWEYYYWGQGTQVTVSS	low polyreactivity
